Data reported in patent US9493781B2, “Synthetic brassica-derived chloroplast transit peptides” (DOW AGROSCIENCES LLC, priority 2012, dated 2016).

Legend:
Arabidopsis [1] = assay: dgt-28, dgt-32, dgt-33, dgt-3, dgt-7 transformed Arabidopsis (T1, T2, T3) response to postemergence glyphosate, % visual injury; assay type: in vivo, Arabidopsis thaliana; details: 14 days after application
Procedure, shortened: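 Transgenic T1, T2 and T3 Arabidopsis (low-copy events for T2/T3, hemizygous and homozygous in T2) sprayed postemergence with glyphosate at 105, 420, 1,680 or 3,360 g ae/ha. Visual injury scored 2 weeks after treatment as mean, SD and range. Non-transformed Columbia served as sensitive control.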

Arabidopsis [2] = assay: Heritability progeny test of T1 families (T2 plants) with glufosinate, Arabidopsis; assay type: in vivo, Arabidopsis thaliana; details: progeny test of 100 T2 plants, glufosinate 200 g ae/ha
Procedure, shortened: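 Self-pollinated T1 Arabidopsis events gave T2 seed; 100 random T2 siblings were sprayed with glufosinate at 200 g ae/ha and scored resistant/sensitive, segregation tested by Chi square against 3:1.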

[3] = Table 8, T1 Arabidopsis, 105 g ae/ha glyphosate
[4] = Table 8, T1 Arabidopsis, 420 g ae/ha glyphosate
[5] = Table 8, T1 Arabidopsis, 1680 g ae/ha glyphosate
[6] = Table 8, T1 Arabidopsis, 3360 g ae/ha glyphosate
[7] = Table 10, T1 Arabidopsis, 1,680 g ae/ha glyphosate
[8] = Table 12, T2 Arabidopsis, 1 copy, 420 g ae/ha glyphosate
[9] = Table 12, T2 Arabidopsis, 1 copy, 840 g ae/ha glyphosate
[10] = Table 12, T2 Arabidopsis, 1 copy, 1680 g ae/ha glyphosate
[11] = Table 12, T2 Arabidopsis, 1 copy, 3360 g ae/ha glyphosate

B1: pDAB105533: TraP12 v2 -- dgt-28 v5: binary construct TraP12 v2: dgt-28 v5 (SEQ ID NO:36) (nucleic acid)
DNA: ATGGCACAATCTAGCAGAATCTGCCACGGTGTGCAGAACCCATGTGTGATCATTTCAAATCTCTCAAAGTCCAATCAGAACAAATCACCTTTCTCCGTCTCCCTCAAGACACACCAGCATCCAAGGGCATACCCGATAAGCAGCTCATGGGGACTCAAGAAGAGCGGAATGACTCTGATTGGCTCTGAGCTTCGTCCTCTTAAGGTTATGTCCTCTGTTTCCGCAGCAAGAGGGATGCCAGCCTTGTCTTTACCTGGATCAAAGAGTATCACAGCTAGGGCACTCTTTCTTGCTGCTGCTGCTGATGGGGTTACTACTTTGGTGAGGCCATTGAGAAGTGACGACACAGAAGGATTCGCTGAGGGGTTAGTTCGTTTAGGCTATCGTGTAGGGAGGACACCCGATACTTGGCAAGTCGATGGCAGACCACAAGGACCAGCAGTGGCTGAGGCTGACGTCTACTGTAGAGACGGAGCAACCACCGCTAGATTCTTGCCAACCTTAGCAGCTGCTGGTCACGGAACATACAGATTTGATGCTTCACCACAGATGAGGAGACGTCCTCTTTTGCCCTTAAGCAGAGCCTTGAGGGATTTGGGTGTCGATCTTAGACACGAAGAAGCTGAAGGTCATCACCCTCTGACTGTCCGTGCTGCTGGGGTTGAAGGAGGAGAGGTTACTTTGGATGCTGGTCAGTCAAGTCAGTATCTCACTGCCTTGTTGCTCCTTGGTCCCCTTACAAGACAAGGACTGAGGATAAGGGTTACTGATTTGGTGTCAGCACCATACGTGGAGATTACGCTTGCAATGATGAGGGCTTTCGGAGTTGAAGTGGCAAGGGAGGGAGATGTGTTCGTTGTTCCACCTGGTGGATATCGTGCAACTACGTATGCTATAGAACCCGACGCAAGTACTGCTTCTTACTTCTTCGCAGCTGCTGCTTTGACTCCTGGAGCTGAAGTGACTGTACCTGGGTTAGGCACGGGAGCACTTCAAGGAGATTTGGGATTTGTAGATGTCTTAAGGAGAATGGGAGCCGAGGTGTCCGTAGGAGCTGATGCAACCACTGTTAGAGGAACTGGTGAATTGCGTGGCCTTACAGCCAACATGAGAGACATAAGTGATACGATGCCGACCCTCGCTGCAATAGCACCCTTTGCTAGTGCTCCAGTTAGAATCGAGGATGTTGCCAACACTCGTGTCAAAGAATGTGACAGACTTGAGGCTTGTGCAGAGAACCTTAGGAGGTTGGGAGTAAGGGTTGCAACGGGTCCGGACTGGATTGAGATACACCCTGGTCCAGCTACTGGTGCTCAAGTCACAAGCTATGGTGATCACAGAATTGTGATGTCATTTGCAGTGACTGGACTTCGTGTGCCTGGGATCAGCTTCGACGACCCTGGCTGTGTTCGTAAGACTTTTCCTGGGTTTCACGAGGCTTTCGCAGAATTGAGGCGTGGCATTGGGAGCTGA
modifications: In-frame fusion of dgt-28 v5 and TraP12 v2
% Injury Ave (Arabidopsis [1]; [3]): 10.0% | % Injury Range (%) (Arabidopsis [1]; [3]): 0-25% | No. plants with 20-40% injury (Arabidopsis [1]; [3]): 1 | No. plants with <20% injury (Arabidopsis [1]; [3]): 4 | No. plants with >40% injury (Arabidopsis [1]; [3]): 0 | % Injury Ave (Arabidopsis [1]; [4]): 53.6% | % Injury Range (%) (Arabidopsis [1]; [4]): 8-85% | No. plants with 20-40% injury (Arabidopsis [1]; [4]): 1 | No. plants with <20% injury (Arabidopsis [1]; [4]): 1 | No. plants with >40% injury (Arabidopsis [1]; [4]): 3 | % Injury Ave (Arabidopsis [1]; [5]): 11.0% | % Injury Range (%) (Arabidopsis [1]; [5]): 0-20% | No. plants with 20-40% injury (Arabidopsis [1]; [5]): 1 | No. plants with <20% injury (Arabidopsis [1]; [5]): 4 | No. plants with >40% injury (Arabidopsis [1]; [5]): 0 | % Injury Ave (Arabidopsis [1]; [6]): 55.0% | % Injury Range (%) (Arabidopsis [1]; [6]): 25-80% | No. plants with 20-40% injury (Arabidopsis [1]; [6]): 2 | No. plants with <20% injury (Arabidopsis [1]; [6]): 0 | No. plants with >40% injury (Arabidopsis [1]; [6]): 3 | % Injury Ave (Arabidopsis [1]; [7]): 11.0% | % Injury Range (%) (Arabidopsis [1]; [7]): 0-20% | No. plants with 20-40% injury (Arabidopsis [1]; [7]): 1 | No. plants with <20% injury (Arabidopsis [1]; [7]): 4 | No. plants with >40% injury (Arabidopsis [1]; [7]): 0 | % Injury Ave (Arabidopsis [1]; [8]): 0.0% | % Injury Range (%) (Arabidopsis [1]; [8]): 0% | No. plants with 20-40% injury (Arabidopsis [1]; [8]): 0 | No. plants with <20% injury (Arabidopsis [1]; [8]): 4 | No. plants with >40% injury (Arabidopsis [1]; [8]): 0 | % Injury Ave (Arabidopsis [1]; [9]): 0.0% | % Injury Range (%) (Arabidopsis [1]; [9]): 0% | No. plants with 20-40% injury (Arabidopsis [1]; [9]): 0 | No. plants with <20% injury (Arabidopsis [1]; [9]): 4 | No. plants with >40% injury (Arabidopsis [1]; [9]): 0 | % Injury Ave (Arabidopsis [1]; [10]): 0.0% | % Injury Range (%) (Arabidopsis [1]; [10]): 0% | No. plants with 20-40% injury (Arabidopsis [1]; [10]): 0 | No. plants with <20% injury (Arabidopsis [1]; [10]): 4 | No. plants with >40% injury (Arabidopsis [1]; [10]): 0 | % Injury Ave (Arabidopsis [1]; [11]): 13.3% | % Injury Range (%) (Arabidopsis [1]; [11]): 8-25% | No. plants with 20-40% injury (Arabidopsis [1]; [11]): 1 | No. plants with <20% injury (Arabidopsis [1]; [11]): 3 | No. plants with >40% injury (Arabidopsis [1]; [11]): 0 | T1 Families Tested Segregating at 1 Locus (%) (Arabidopsis [2]): 50%
